Data reported in patent publication US12331106B2, “Anti-angiopoietin-2 antibodies that induce Tie2 activation” (Institute for Basic Science, priority 2018, dated 2025).
Positions count from the first letter of the chain named.

T1: hAng2 (Homo sapiens, UniProt O15123)
T1 sequence (O15123 19-496): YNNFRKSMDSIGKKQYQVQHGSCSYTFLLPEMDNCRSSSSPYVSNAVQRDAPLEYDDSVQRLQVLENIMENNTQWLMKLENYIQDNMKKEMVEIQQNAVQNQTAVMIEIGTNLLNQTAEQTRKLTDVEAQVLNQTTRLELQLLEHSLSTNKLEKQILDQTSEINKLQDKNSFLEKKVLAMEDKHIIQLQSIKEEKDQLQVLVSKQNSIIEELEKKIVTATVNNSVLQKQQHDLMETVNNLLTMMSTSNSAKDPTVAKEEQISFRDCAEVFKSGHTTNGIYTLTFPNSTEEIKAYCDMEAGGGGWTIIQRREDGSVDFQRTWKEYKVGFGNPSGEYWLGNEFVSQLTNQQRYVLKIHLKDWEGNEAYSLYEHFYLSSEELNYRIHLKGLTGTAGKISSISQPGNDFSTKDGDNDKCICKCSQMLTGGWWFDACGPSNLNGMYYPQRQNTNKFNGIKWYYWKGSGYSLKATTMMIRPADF

B1: 2C8H11G4: human IgG4 class antibody of 2C8H11 (antibody, V domains shown)
VH: QVQLVQSGAEVKKPGASVKVSCKASGYTFTSYWMHWVRQAPGQGLEWMGMIDPSDSETRLNQKFKDRVTMTRDTSTSTVYMELSSLRSEDTAVYYCARRFYYGSDWYFDVWGQGTLVTVSS
VL: DIQLTQSPSFLSASVGDRVTITCKASQDVGTAVAWYQQKPGKAPKLLIYWASTRHTGVPSRFSGSGSGTEFTLTISSLQPEDFATYYCQQYSSYPLTFGQGTKVEIK
B2: 4B9H11G4: human IgG4 class antibody of 4B9H11 (antibody, V domains shown)
VH: QVQLVESGGGLVKPGGSLRLSCAASGFTFSDYYMYWIRQAPGKGLEWVSTISVGGSFTYYPDSVKGRFTISRDNAKNSLYLQMNSLRAEDTAVYYCARDWGLRPWFVYWGQGTLVTVSS
VL: B1 VL with L4M, F10S, G30S, E70D, Y91H, S92Y, Y94T, L96P
B3: 2C8H21: humanized anti-Ang2 antibody from mouse 2C8; VH SEQ ID NO: 59, VL SEQ ID NO: 60 (antibody, V domains shown)
VH: B1 VH with T28S, M48I
VL: B1 VL
modifications: VH; VL
B4: 2C8H22: humanized anti-Ang2 antibody from mouse 2C8; VH SEQ ID NO: 79, VL SEQ ID NO: 80 (antibody, V domains shown)
VH: B1 VH with T28S, M48I
VL: B1 VL with T20S, S60D
modifications: VH; VL
B5: 2C8H43: humanized anti-Ang2 antibody from mouse 2C8; VH SEQ ID NO: 107, VL SEQ ID NO: 108 (antibody, V domains shown)
VH: B1 VH with T28S, R38K, M48I, R67K, V68A, T69S
VL: B1 VL with T20S, S60D, T85D, Y87F
modifications: VH; VL
B6: 2C8H12: humanized anti-Ang2 antibody from mouse 2C8; VH SEQ ID NO: 75, VL SEQ ID NO: 76 (antibody, V domains shown)
VH: B1 VH
VL: B1 VL with T20S, S60D
modifications: VH; VL
B7: 2C8H33: humanized anti-Ang2 antibody from mouse 2C8; VH SEQ ID NO: 103, VL SEQ ID NO: 104 (antibody, V domains shown)
VH: B1 VH with T28S, M48I, R67K, V68A, T69S
VL: B1 VL with T20S, S60D, T85D, Y87F
modifications: VH; VL
B8: 2C8H53: humanized anti-Ang2 antibody from mouse 2C8; VH SEQ ID NO: 111, VL SEQ ID NO: 112 (antibody, V domains shown)
VH: B1 VH with T28S, R38K, M48I, R67K, V68A, T69S, M70L, R72V
VL: B1 VL with T20S, S60D, T85D, Y87F
modifications: VH; VL
B9: 2C8H32: humanized anti-Ang2 antibody from mouse 2C8; VH SEQ ID NO: 83, VL SEQ ID NO: 84 (antibody, V domains shown)
VH: B1 VH with T28S, M48I, R67K, V68A, T69S
VL: B1 VL with T20S, S60D
modifications: VH; VL
B10: 2C8H42: humanized anti-Ang2 antibody from mouse 2C8; VH SEQ ID NO: 87, VL SEQ ID NO: 88 (antibody, V domains shown)
VH: B1 VH with T28S, R38K, M48I, R67K, V68A, T69S
VL: B1 VL with T20S, S60D
modifications: VH; VL
B11: 2C8H52: humanized anti-Ang2 antibody from mouse 2C8; VH SEQ ID NO: 91, VL SEQ ID NO: 92 (antibody, V domains shown)
VH: B1 VH with T28S, R38K, M48I, R67K, V68A, T69S, M70L, R72V
VL: B1 VL with T20S, S60D
modifications: VH; VL
B12: 2C8H31: humanized anti-Ang2 antibody from mouse 2C8; VH SEQ ID NO: 63, VL SEQ ID NO: 64 (antibody, V domains shown)
VH: B1 VH with T28S, M48I, R67K, V68A, T69S
VL: B1 VL
modifications: VH; VL
B13: 2C8H41: humanized anti-Ang2 antibody from mouse 2C8; VH SEQ ID NO: 67, VL SEQ ID NO: 68 (antibody, V domains shown)
VH: B1 VH with T28S, R38K, M48I, R67K, V68A, T69S
VL: B1 VL
modifications: VH; VL
B14: 2C8H23: humanized anti-Ang2 antibody from mouse 2C8; VH SEQ ID NO: 99, VL SEQ ID NO: 100 (antibody, V domains shown)
VH: B1 VH with T28S, M48I
VL: B1 VL with T20S, S60D, T85D, Y87F
modifications: VH; VL
B15: 2C8H13: humanized anti-Ang2 antibody from mouse 2C8; VH SEQ ID NO: 95, VL SEQ ID NO: 96 (antibody, V domains shown)
VH: B1 VH
VL: B1 VL with T20S, S60D, T85D, Y87F
modifications: VH; VL
B16: 2C8H51: humanized anti-Ang2 antibody from mouse 2C8; VH SEQ ID NO: 71, VL SEQ ID NO: 72 (antibody, V domains shown)
VH: B1 VH with T28S, R38K, M48I, R67K, V68A, T69S, M70L, R72V
VL: B1 VL
modifications: VH; VL

Each molecule was assayed against T1, hAng2 (assay: OCTET affinity of humanized anti-Ang2 antibodies against hAng2). Details: IgG4 class antibodies.
Type: binding
Method: The affinity of humanized anti-Ang2 antibody against hAng2 was measured using OCTET® system (ForteBio). Specifically, buffer and samples were measured in total 200 μl/well using Black 96-well plates (96 well F-type black plates, Greiner). The biosensor used for affinity measurements was hydrated for 10 min before measurement with AR2G tip (ForteBio OCTET®). After the hydration, humanized anti-Ang2 antibody was diluted in 10 mM sodium acetate, pH 6.0 buffer at a concentration of 10 μg/ml, fixed on AR2G biosensor, and blocked with 1M ethanolamine. The recombinant hAng2 was diluted to 50, 25, 12.5, 6.25, 3.125, and 0 nM with 1× kinetic buffer, and subjected to association for 300 sec and dissociation for 900 sec. For affinity measurement (KD), association rate (K-on) and dissociation rate (K-off) were analyzed by binding curve (global) and fitted to 1:1 binding model using OCTET® data analysis v9.0.0.10 program.
The affinities of humanized 2C8 antibodies to hAng2 were in Table 15.

Kdis [s⁻¹] | Kon [M⁻¹ s⁻¹] | Molecule
4.35e-06 | 415000 | B1
3.46e-05 | 432000 | B2

Same assay, conditions: IgG4 class antibodies; statement in words

affinities to hAng2 antigen | Molecule
subnanomolar high affinities | B1
subnanomolar high affinities | B2

Same assay, conditions: OCTET, antibody fixed on AR2G biosensor, hAng2 50-0 nM, 1:1 binding model

Kdis [s⁻¹] | Kon [M⁻¹ s⁻¹] | Molecule
1.5e-05 | 111000 | B3
6.84e-06 | 59600 | B4
2.65e-05 | 71100 | B5
1.33e-05 | 95200 | B6
3.99e-06 | 89600 | B7
3.11e-05 | 80900 | B8
1.49e-05 | 75700 | B9
3.07e-05 | 80600 | B10
1.99e-05 | 81900 | B11
2.21e-05 | 83200 | B12
1.67e-05 | 67000 | B13
2.28e-05 | 79500 | B14
2.77e-05 | 113000 | B15
9.61e-06 | 70200 | B16
